In IntAct's records for PubMed 10521435:

B1: Chaperone protein DnaJ (Escherichia coli (strain K12)), P08622 (parent)
chain: MAKQDYYEILGVSKTAEEREIRKAYKRLAMKYHPDRNQGDKEAEAKFKEIKEAYEVLTDSQKRAAYDQYGHAAFEQGGMGGGGFGGGADFSDIFGDVFGDIFGGGRGRQRAARGADLRYNMELTLEEAVRGVTKEIRIPTLEECDVCHGSGAKPGTQPQTCPTCHGSGQVQMRQGFFAVQQTCPHCQGRGTLIKDPCNKCHGHGRVERSKTLSVKIPAGVDTGDRIRLAGEGEAGEHGAPAGDLYVQVQVKQHPIFEREGNNLYCEVPINFAMAALGGEIEVPTLDGRVKLKVPGETQTGKLFRMRGKGVKSVRGGAQGDLLCRVVVETPVGLNERQKQLLQELQESFGGPTGEHNSPRSKSFFDGVKKFFDDLTR

Variants of: B1
Conditions: with dnak_ecoli dnaK

effect of a mutation on the interaction	Variant
decreasing interaction	K62A
decreasing interaction	R63A
decreasing interaction	K62A;R63A
